Laboratory results from the supplement of paper PMC10126150.
± gives the standard deviation of the averaged measurements.

test system: ATP; test: switch fluorescence ratio, 500 uM ATP over buffer (Cy3 cluster intensity, sum of 5 cycles each) (fold (ratio)); higher = stronger signal-on switching upon ATP binding; sequences stand for … in TCGTCGGCAGCGTCAGATGTGTATAAGAGACAGTTTTTTTTTTTTTTTTTTTTTTTTT…TC; details: aptamer strand: ATP DNA aptamer (quencher-CACCTGGGGGAGTATTGCGGAGGAAGG + anchor), 100 nM annealed; ATP concentration: 500 uM
Method in brief: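 Five buffer/ATP imaging cycles were run on Cy3-labelled switching-strand clusters on a modified Illumina MiSeq flow-cell, with NaOH stripping and re-annealing between cycles. In each cycle, clusters annealed to 100 nM quencher-labelled ATP aptamer were imaged in selection buffer, then after 15 min with 500 uM ATP at 22 °C. Per cluster, the fluorescence ratio is summed target-cycle over summed buffer-cycle Cy3 intensity, averaged per switch-domain sequence. Only clusters within 100-1000 RFU were kept.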
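Further: ATP exposure 15 min at 22 °C before imaging.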

Sequence	switch fluorescence ratio
ATATGTTGTC	0.894 ± 0.11
ATATGTTGTT	0.98 ± 0.025
ATATTAAAGT	1.038 ± 0.0047
ATATTAAGAT	0.988 ± 0.028
ATATTAAGTC	1.02 ± 0.013
ATATTAGATT	1.019 ± 0.0076
ATATTAGGTC	1.01 ± 0.016
ATATTAGTAT	1.01 ± 0.038
ATATTATTTT	0.9788 ± 0.0047
ATATTCAGTA	1 ± 0.015
ATATTCTTAG	1.01 ± 0.013
ATATTCTTTG	0.997 ± 0.016
ATATTGAGGT	1 ± 0.013
ATATTGATTA	1.02 ± 0.032
ATATTGGGGT	1.01 ± 0.019
ATATTGGTAC	1.034 ± 0.0013
ATATTTAAAA	0.985 ± 0.021
ATATTTACTA	1.11 ± 0.11
ATATTTGAGT	0.9878 ± 0.0045
ATATTTGGCG	1.007 ± 0.0029
ATATTTTATG	1.03 ± 0.044
ATATTTTCAG	0.994 ± 0.012
ATATTTTGGG	1.003 ± 0.0089
ATCAAAATTT	1.03 ± 0.028
ATCAAAGCGG	0.998 ± 0.0094

Sequence	switch fluorescence ratio
ATCAAAGGGA	0.976 ± 0.048
ATCAACGGAA	1.08 ± 0.013
ATCAACGGCA	1.07 ± 0.023
ATCACGGGGG	1.02 ± 0.019
ATCACTGATT	1.057 ± 0.0085
ATCAGAAGGT	0.995 ± 0.021
ATCAGAATGA	1.013 ± 0.0023
ATCAGATTAC	1.025 ± 0.0092
ATCAGATTTT	0.9867 ± 0.0034
ATCAGCCATA	1.03 ± 0.036
ATCAGGGCGG	0.9887 ± 0.0089
ATCAGGGGCA	1.057 ± 0.0049
ATCAGGGTAT	1.07 ± 0.089
ATCAGGGTGC	1.06 ± 0.051
ATCAGGTGGT	1.19 ± 0.036
ATCAGTATTA	1.02 ± 0.016
ATCAGTTCCT	1.04 ± 0.013
ATCATACACT	1.06 ± 0.018
ATCATACGGG	1.03 ± 0.02
ATCATACTGT	1.007 ± 0.0024
ATCATAGGGG	1 ± 0.016
ATCATCTGAC	1.095 ± 0.0095
ATCATGATTC	0.983 ± 0.018
ATCATGGGAC	1.03 ± 0.0069
ATCATTAGGG	0.976 ± 0.032

Sequence	switch fluorescence ratio
ATCATTAGTA	0.999 ± 0.021
ATCCAGGGGT	1.06 ± 0.022
ATCCAGGGTA	1.01 ± 0.03
ATCCAGGTAG	1.75 ± 0.076
ATCCCGAAGC	1.93 ± 0.18
ATCCCGGGGA	0.962 ± 0.014
ATCCCGTAGG	0.9905 ± 0.0084
ATCCCTAAAA	1.0207 ± 0.00031
ATCCCTCATA	1.01 ± 0.018
ATCCGCCGCT	1.72 ± 0.089
ATCCGGACTT	1.02 ± 0.034
ATCCGGCGAT	1.35 ± 0.018
ATCCGGGGTT	1.06 ± 0.057
ATCCGGGTGG	1 ± 0.059
ATCCGGTTTG	0.982 ± 0.041
ATCCGTAATT	2.6 ± 0.22
ATCCGTTTTT	1 ± 0.016
ATCCTAGTGT	1.04 ± 0.052
ATCCTTGTTT	0.997 ± 0.083
ATCCTTTCTT	1.003 ± 0.0062
ATCGAAAAGG	0.998 ± 0.027
ATCGAAGGTA	0.985 ± 0.013
ATCGAATTGG	0.998 ± 0.026
ATCGAGGCGT	1.01 ± 0.019
ATCGAGGTCC	1.01 ± 0.074

Sequence	switch fluorescence ratio
ATCGATGAGC	1.006 ± 0.004
ATCGATGCTT	0.979 ± 0.012
ATCGATTGAG	0.971 ± 0.015
ATCGATTTCT	1.004 ± 0.0049
ATCGCAGATT	1.03 ± 0.019
ATCGCCCGTT	1.01 ± 0.016
ATCGGCGGTG	0.986 ± 0.025
ATCGGCTCTC	1.03 ± 0.025
ATCGGCTCTG	0.991 ± 0.043
ATCGGGAATT	1.009 ± 0.0044
ATCGGGAGGG	1 ± 0.013
ATCGGGATTA	0.987 ± 0.021
ATCGGGGGCT	0.98 ± 0.038
ATCGGGGTGG	1 ± 0.071
ATCGGGTATG	0.9987 ± 0.0082
ATCGGTATTT	1.19 ± 0.39
ATCGGTCGGG	1.011 ± 0.0088
ATCGGTCTTT	0.997 ± 0.084
ATCGGTGACA	1 ± 0.035
ATCGGTGTGT	0.989 ± 0.045
ATCGGTTGTG	1.01 ± 0.029
ATCGTATATG	0.972 ± 0.043
ATCGTATGTA	0.9708 ± 0.0055
ATCGTGGTCA	0.987 ± 0.018
ATCGTGTGTG	0.991 ± 0.035

Sequence	switch fluorescence ratio
ATCGTGTTGT	1.02 ± 0.015
ATCGTTGTGG	0.9893 ± 0.0048
ATCTAAAGGG	0.999 ± 0.015
ATCTATCCTT	1.01 ± 0.036
ATCTATCTGT	1 ± 0.027
ATCTCACTT	1.02 ± 0.03
ATCTCCTGCC	1.475 ± 0.0051
ATCTGATGGC	0.957 ± 0.039
ATCTGCATGA	1.01 ± 0.063
ATCTGCCGGT	0.981 ± 0.017
ATCTGCGGGA	1.05 ± 0.042
ATCTGGAACG	0.988 ± 0.02
ATCTGGGTTA	0.993 ± 0.013
ATCTGGTCAT	0.972 ± 0.016
ATCTGTGGA	1.015 ± 0.0024
ATCTGTTGTC	1.06 ± 0.021
ATCTTCGGTT	1 ± 0.055
ATCTTGATTG	1.03 ± 0.016
ATCTTGGGGC	0.984 ± 0.023
ATCTTGGTCC	0.9948 ± 0.003
ATCTTGTGGG	0.9678 ± 0.0064
ATCTTTATGG	0.964 ± 0.014
ATCTTTTGAG	0.97588 ± 0.00047
ATGAAAAAAG	0.993 ± 0.016
ATGAAAAAAT	0.974 ± 0.015

Sequence	switch fluorescence ratio
ATGAAAAGGA	0.97123 ± 0.00096
ATGAAAGGCT	1.02 ± 0.0022
ATGAAAGTAG	1.005 ± 0.0012
ATGAAAGTCT	0.976 ± 0.042
ATGAACGTTT	1.2 ± 0.28
ATGAAGCATG	1.08 ± 0.04
ATGAAGGCGG	1.05 ± 0.068
ATGAAGGGGA	1 ± 0.049
ATGAATATTA	0.99254 ± 0.00014
ATGAATCGTC	0.9927 ± 0.0037
ATGAATCTAA	1.01 ± 0.046
ATGAATTCGG	1.01 ± 0.011
ATGACACGGA	1.04 ± 0.01
ATGACCCCTC	1.044 ± 0.007
ATGACGCGTC	0.982 ± 0.045
ATGAGAATGC	1.024 ± 0.0063
ATGAGAGAAT	1.0144 ± 0.0004
ATGAGAGCGG	0.996 ± 0.096
ATGAGAGGGC	1.054 ± 0.0092
ATGAGCGCAC	1.06 ± 0.024
ATGAGCGGGG	0.98 ± 0.058
ATGAGCGTCA	0.9904 ± 0.0017
ATGAGGCAGT	1.12 ± 0.039
ATGAGGGCCA	1.01 ± 0.059
ATGAGGGGCG	1.02 ± 0.041

Sequence	switch fluorescence ratio
ATGAGGTAGG	1.03 ± 0.05
ATGAGGTCTC	0.98 ± 0.046
ATGAGGTGAT	1.057 ± 0.0041
ATGAGGTGGG	0.992 ± 0.036
ATGAGGTTGC	0.978 ± 0.011
ATGAGTCCGT	1.16 ± 0.017
ATGAGTTCTC	1 ± 0.042
ATGATACAGT	1.021 ± 0.0067
ATGATAGAGA	1.06 ± 0.021
ATGATAGATA	1.004 ± 0.0047
ATGATAGCTT	1 ± 0.026
ATGATATTTG	1.009 ± 0.006
ATGATCAAAT	1 ± 0.054
ATGATCAGTG	0.98 ± 0.056
ATGATCCGTT	1.001 ± 0.0059
ATGATCTTCC	2.3 ± 0.091
ATGATGACGA	1.06 ± 0.11
ATGATGGTGG	1.02 ± 0.057
ATGATGGTTC	1.01 ± 0.012
ATGATGTAGG	1.033 ± 0.0075
ATGATGTATG	0.989 ± 0.027
ATGATGTGGA	1.01 ± 0.077
ATGATGTTGA	1 ± 0.04
ATGATTTGAG	0.9905 ± 0.0022
ATGCAAACGA	1.23 ± 0.065

Sequence	switch fluorescence ratio
ATGCAATGGA	1 ± 0.064
ATGCACCAGG	2.55 ± 0.19
ATGCACGTAT	1.03 ± 0.048
ATGCACTCGA	1.03 ± 0.012
ATGCAGCGGG	1.01 ± 0.028
ATGCAGGATT	0.981 ± 0.02
ATGCAGTCTA	1.017 ± 0.005
ATGCATCGGG	0.9974 ± 0.0049
ATGCATGATT	0.9822 ± 0.0051
ATGCATGGAG	1.03 ± 0.016
ATGCATGGTT	1.02 ± 0.054
ATGCCCAGGG	1.61 ± 0.04
ATGCGAGTAT	1.023 ± 0.0018
ATGCGCACGG	1.064 ± 0.009
ATGCGCCCTG	1 ± 0.015
ATGCGGGATT	1.01 ± 0.023
ATGCGGTAGA	1.02 ± 0.042
ATGCGTGTTT	1.003 ± 0.0014
ATGCTAAAAG	1.008 ± 0.0096
ATGCTATGTA	1.01 ± 0.033
ATGCTCAGTT	0.9836 ± 0.0062
ATGCTCTGCC	0.992 ± 0.029
ATGCTGCCTG	1.01 ± 0.019
ATGCTGGGTC	0.973 ± 0.028
ATGCTTATCA	0.9807 ± 0.0051
